This is an account of results in patent US20150355199A1 (ROCHE DIAGNOSTICS OPERATIONS, published 2015).

Broadly, the Kd is the concentration at which binding is half-saturated.

Assay [1] has as its target T1, recombinant CFHR1-1-5 (tag-less, full-length mature human complement factor H-related protein 1) (human, UniProt Q03591 19-330).
T1 construct: also called recCFHR1
T1 sequence: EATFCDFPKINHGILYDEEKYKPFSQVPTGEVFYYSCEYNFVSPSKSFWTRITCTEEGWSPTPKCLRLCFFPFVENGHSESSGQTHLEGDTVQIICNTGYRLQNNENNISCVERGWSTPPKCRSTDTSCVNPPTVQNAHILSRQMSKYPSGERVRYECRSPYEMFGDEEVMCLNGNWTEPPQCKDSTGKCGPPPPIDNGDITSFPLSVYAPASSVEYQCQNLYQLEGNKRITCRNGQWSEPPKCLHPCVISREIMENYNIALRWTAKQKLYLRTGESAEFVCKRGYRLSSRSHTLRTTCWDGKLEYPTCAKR
In words: SPR (BiaCore), antibody captured by rabbit anti-mouse IgG on CM5 chip, antigen in solution. On the procedure:
(§1) The antibodies MAB<CFH/CFHR1>M-L20/3, MAB<CFHR1>M-442127, MAB<CFHR1>M-4.1.3 and MAB<CFHR1>M-5.1.5 were analyzed on the BiaCore. The chip CM5 coated with a rabbit anti-Mouse IgG was used to bind the purified monoclonal mouse antibodies. In the next step native CFH or the recombinant CFHR1, CFHR2, CFHR3, CFHR4B or CFHR5 proteins according to SEQ ID No.: 9 to 13 were added to determine the binding affinities of the different antibodies.

Assay [2] addresses T2, CFHR2-GS-Avi-GS-His8 (human).
T2 construct: Tagged recombinant protein from HEK293 cells; also called recombinant CFHR2
T2 chain: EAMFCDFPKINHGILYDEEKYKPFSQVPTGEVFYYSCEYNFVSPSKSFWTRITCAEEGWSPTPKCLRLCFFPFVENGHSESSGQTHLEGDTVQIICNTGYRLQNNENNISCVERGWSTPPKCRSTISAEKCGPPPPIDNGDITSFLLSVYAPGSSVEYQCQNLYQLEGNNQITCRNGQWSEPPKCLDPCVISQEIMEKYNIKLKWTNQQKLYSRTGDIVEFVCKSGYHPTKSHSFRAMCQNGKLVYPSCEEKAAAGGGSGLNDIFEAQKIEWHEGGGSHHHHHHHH
The description is as above. On the procedure: as §1

The target of assay [3] is T3, CFHR5-GS-Avi-GS-His8 (human, UniProt Q9BXR6 19-569).
T3 construct: Tagged recombinant protein from HEK293 cells; also called recombinant CFHR5
T3 sequence: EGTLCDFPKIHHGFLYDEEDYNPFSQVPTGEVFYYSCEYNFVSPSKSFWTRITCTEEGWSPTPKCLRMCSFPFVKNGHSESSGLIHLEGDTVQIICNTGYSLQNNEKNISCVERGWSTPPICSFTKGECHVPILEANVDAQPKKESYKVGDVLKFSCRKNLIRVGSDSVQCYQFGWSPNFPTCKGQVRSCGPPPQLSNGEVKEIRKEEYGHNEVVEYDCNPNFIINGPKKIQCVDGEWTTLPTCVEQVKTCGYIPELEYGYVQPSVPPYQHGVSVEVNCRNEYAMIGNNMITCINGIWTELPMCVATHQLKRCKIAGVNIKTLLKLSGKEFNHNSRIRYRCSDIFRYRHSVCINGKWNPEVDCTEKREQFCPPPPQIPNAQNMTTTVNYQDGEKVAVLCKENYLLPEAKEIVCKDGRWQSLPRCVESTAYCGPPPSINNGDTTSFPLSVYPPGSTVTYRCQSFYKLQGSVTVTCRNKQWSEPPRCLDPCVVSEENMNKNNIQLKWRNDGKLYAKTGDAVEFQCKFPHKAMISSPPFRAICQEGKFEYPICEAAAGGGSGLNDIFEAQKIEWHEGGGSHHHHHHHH
In words: SPR (BiaCore), antibody captured by rabbit anti-mouse IgG on CM5 chip; n.d. = not detectable. Here is the method: as §1
For orientation: Surface plasmon resonance follows binding to a sensor surface in real time, without labels.

Assay [4] deals with T4, CFHL1-GS-Avi-GS-His8 (human, UniProt P08603 19-445).
T4 construct: also called complement factor H isoform 2
The assay is described as above. Here is the method:
as §1

Assay [5] has as its target T5, native human complement factor H (CFH) (human, UniProt P08603 19-1231).
T5 construct: Native CFH; also called native CFH; serum-purified CFH
The assay is described as above. On the procedure:
as §1

The target in assay [6] is T6, CFHR3-GS-Avi-GS-His8 (human, UniProt Q02985 19-330).
T6 construct: Tagged recombinant protein from HEK293 cells; also called recombinant CFHR3
T6 sequence: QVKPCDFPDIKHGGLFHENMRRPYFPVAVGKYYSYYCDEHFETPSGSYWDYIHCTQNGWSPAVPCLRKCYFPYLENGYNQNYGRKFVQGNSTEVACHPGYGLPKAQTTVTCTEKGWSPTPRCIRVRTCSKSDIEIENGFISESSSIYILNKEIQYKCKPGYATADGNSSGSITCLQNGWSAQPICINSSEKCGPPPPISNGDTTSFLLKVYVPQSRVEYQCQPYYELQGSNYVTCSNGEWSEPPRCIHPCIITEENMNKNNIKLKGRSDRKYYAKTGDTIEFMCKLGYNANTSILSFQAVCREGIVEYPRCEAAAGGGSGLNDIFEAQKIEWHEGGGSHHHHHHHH
The assay is described as above. Here is the method:
as §1

The target in assay [7] is T7, CFHR4-GS-Avi-GS-His8 (CFHR4 Variant B) (human).
T7 construct: Tagged recombinant protein from HEK293 cells; also called CFHR4B; recombinant CFHR4B
T7 chain: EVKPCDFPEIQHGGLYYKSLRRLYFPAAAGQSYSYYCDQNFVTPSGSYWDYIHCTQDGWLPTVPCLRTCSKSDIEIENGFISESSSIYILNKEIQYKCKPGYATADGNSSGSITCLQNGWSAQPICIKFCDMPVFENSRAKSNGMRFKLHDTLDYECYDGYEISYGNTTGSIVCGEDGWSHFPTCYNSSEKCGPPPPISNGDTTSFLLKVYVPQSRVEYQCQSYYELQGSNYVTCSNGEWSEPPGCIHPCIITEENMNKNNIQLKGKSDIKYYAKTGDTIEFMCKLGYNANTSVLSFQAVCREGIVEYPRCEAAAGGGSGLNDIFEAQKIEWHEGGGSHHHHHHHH
The assay is described as above. On the procedure:
as §1

Assay [8] has as its target T5, native human complement factor H (CFH). As to the kind of experiment: indirect ELISA, hybridoma supernatant on CFH captured by biotinylated L20/3 Fab on streptavidin plates. On the procedure:
(§2) MAb production in hybridoma culture supernatants was assayed by indirect enzyme-linked immunosorbent assay (ELISA). Streptavidin coated microtiter plates (Microcoat, Bernried, Germany) were incubated with biotinylated Fab fragment of the MAB<CFH/CFHR1>M-L20/3 monoclonal antibody diluted 1:2000 in incubation buffer (phosphate buffered saline pH 7.3, 0.5% Byco C) for 1 h at room temperature. After washing with washing buffer (0.9% NaCl solution, 0.05% Tween 20) the microtiter plates were incubated for 1 h at room temperature with 100 ng/ml purified recombinant CFHR1 and CFH protein diluted in incubation buffer. The microtiter plates were washed again and hybridoma supernatants were added to the coated well and incubated for 1 h at room temperature. After washing, the bound monoclonal antibodies (MAbs) were detected by a 1 h incubation with goat anti-mouse IgG peroxidase conjugate (Calbiochem, Germany) diluted 1:5000 in incubation buffer followed by substrate reaction with ABTS solution (Roche, Germany) after further washing step. The color change was measured in an ELISA reader at 405/490 nm after 20-30 min. Some CFHR1-specific clones without any crossreactivity against CFH were selected.
On the technique in general: In an ELISA, binding on a coated surface is turned into a signal by an enzyme label.

The target of assay [9] is T1, recombinant CFHR1-1-5 (tag-less, …). As to the kind of experiment: indirect ELISA, hybridoma supernatant on CFHR1 captured by biotinylated L20/3 Fab on streptavidin plates. Here is the method:
as §2

Assay [10] addresses T2, CFHR2-GS-Avi-GS-His8. As to the kind of experiment: sandwich ECLIA, L20/3 Fab-Bi capture + 5.3.23-Ru detection (signal needs both antibodies); sample 50 µg/ml recombinant CFHR2.
Assay [11] addresses T2, CFHR2-GS-Avi-GS-His8. As to the kind of experiment: sandwich ECLIA, L20/3 Fab-Bi capture + 5.3.23-Ru detection (signal needs both antibodies); sample 100 µg/ml recombinant CFHR2.
The target of assay [12] is T2, CFHR2-GS-Avi-GS-His8. In words: sandwich ECLIA, L20/3 Fab-Bi capture + 4.2.74-Ru detection (signal needs both antibodies); sample 50 µg/ml recombinant CFHR2.
The target of assay [13] is T2, CFHR2-GS-Avi-GS-His8. In words: sandwich ECLIA, L20/3 Fab-Bi capture + 4.2.74-Ru detection (signal needs both antibodies); sample 100 µg/ml recombinant CFHR2.
In assay [14] the target is T2, CFHR2-GS-Avi-GS-His8. As to the kind of experiment: sandwich ECLIA, L20/3 Fab-Bi capture + 4.2.53-Ru detection (signal needs both antibodies); sample 50 µg/ml recombinant CFHR2.
Assay [15] has as its target T2, CFHR2-GS-Avi-GS-His8. As to the kind of experiment: sandwich ECLIA, L20/3 Fab-Bi capture + 4.2.53-Ru detection (signal needs both antibodies); sample 100 µg/ml recombinant CFHR2.

B1: MAB<CFHR1>M-5.1.5 (antibody, V domains shown)
VH: EVQLVESGGDLVKPGGSLKLSCAASGFTFSSYDMSWVRQTPDKRLEWVATISSGGSNTYYPDSVKGRFTISRDNAKNTLYLQMSSLKSEDTAMYYCARQGYYYGSSYYAMDYWGQGTSVTVSS
VL: QIVLTQSPAIMSASPGEKVTMTCRASSSVSSSYLHWYQQKPGSSPKLWIYITSSLASGVPARFSGSGSGTSYSLTISSVEAEDGATYYCQQYHSSPYTFGSGTKLEIK
modifications: In the ECLIA sandwich assays the IgG was ruthenylated (Ru-(bpy)2-bpyCO-OSu). The BiaCore results used purified antibody with no label mentioned.
notes: It was used ruthenylated (-Ru) in the sandwich ECLIA; also called clone 5.1.5; MAK<CFHR1>M-5.1.5; copies: 2 + 2
For B1, the Kd in [1] stood at 0.01 nM; in [2], 0.3 nM. Further, the binding result in assay [3], in assay [4], in assay [5], in assay [6] and in [7] was “no binding” in each case.

B2: MAB<CFHR1>M-5.3.23 (antibody, V domains shown)
VH: EVKLEESGGGLVQPGGSMKLSCDGSGFTFSDAWMGWVRQSPEKGLEWVSEIRNRANNHETHYAESVKGRFTISRDDSKSRVYLQMNSLRAEDTGIYYCNGRYYDSYWFLDVWGAGTTVTVSS
VL: NIVMTQTPKFLPVSVGDRVTMTCKASQSVGYNVAWFQQKPGQSPKLLIYYASNRYTGVPDRFTGSGGGTDFTFTISSVQVEDLAVYFCQQHYISPTFGSGTKLEIKR
notes: In-house mouse monoclonal IgG; also called MAB<CFHR1>M-5.3.23-Ru
Turning to B2, the results for the binding result in assay [8] and in assay [9] were “no binding (tested: 100 ng/ml CFH)” and “binds”, respectively. Further, the Measured CFHR1 in assay [10] and in assay [11] was 0 µg/mL in each case.

B3: MAB<CFHR1>M-4.2.74 (antibody, V domains shown)
VH: DVRLVESGGGLVQPGGSRKLSCAASGFTFSSFGMHWVRQAPEKGLEWVAYISSGSSTIYYADTVKGRFTISRDNPKNTLFLQMTSLRSEDTAMYYCARWGNSYAMDYWGQGTSVTVSS
VL: DIVMTQSPSSLTVTAGEKVTMSCKSSQSLLNRGNQKNYLTWYQQKPGQPPKLLIYWASTRESGVPDRFTGSGSGTDFTLTISSVLAEDLAVYYCQIAYSSPFTFGSGTKLEIKR
notes: In-house mouse monoclonal IgG; also called MAB<CFHR1>M-4.2.74-Ru
For B3, the binding result in assay [8] was “no binding (tested: 100 ng/ml CFH)”; in assay [9], “binds”. Besides, the Measured CFHR1 in [12] and in assay [13] was 0 µg/mL in each case.

B4: MAB<CFHR1>M-4.2.53 (antibody, V domains shown)
VH: QVQLKESGPGLVAPSQSLSITCTVSGFSLTSYGVHWVRQPPGKGLEWLGVIWAGGNTDYISALMSRLSISKDNSKSQVFLKINRLQTDDTAVYYCARDHYDGYYMEYWGQGTSVTVSP
VL: DIQMTQSPSSLSASLGGKVTITCKASQDINKYLAWYQHKPGKGPRLLIHYTFTLQPGIPSRFSGGGSGRDYSFNINNLEPEDIATYYCLQYDNLYTFGGGTKLEIKR
notes: In-house mouse monoclonal IgG; also called MAB<CFHR1>M-4.2.53-Ru
As to B4, the binding result in assay [8] is recorded as “no binding (tested: 100 ng/ml CFH)”; in [9], “binds”. Besides, the Measured CFHR1 in assay [14] was found to be 0 µg/mL; in assay [15], 0.09 µg/mL.

B5: MAB<CFHR1>M-4.1.3 (antibody, V domains shown)
VH: DVQLQESGPGLVKPSQSLSLTCTVTGYSITSEYAWNWIRQFPGNKLEWMAYINSSGKSSYNPSLKSRISVTRDTSKNQFFLQLNSVTTEDTATYYCAREGYGNYPAWFAYWGQGTLVTVSA
VL: DIQMTQTTSSLSASLGDRVTISCSASQDINNYLNWYQQKPDGTVKLLIYYTSNLHSGVPSRFSGSGSGTDYSLTISNLEPEDIATYFCQQYSKLPRTFGGGTKLEIKR
notes: In-house mouse monoclonal IgG; also called MAB<CFHR1>M-4.1.3-Ru
B5: the Kd is 0.8 nM in assay [1] and 19 nM in assay [2]. Also, the binding result in assay [3], in assay [4], in assay [5], in [6] and in assay [7] was “no binding” in each case.
